Measurements reported in patent publication US20090149339A1 (published 2009).
Ends that are not written are not given here. * marks the point of attachment. Biotin = O=C1N[C@H]2[C@H](CS[C@H]2CCCCC(=O)*)N1

Key:
[1] = target: T1, GST-NeDLG PDZ domain fusion protein (presynaptic protein sao102, neuroendocrine-dlg; PDZ domains 1-2 of 3) (UniProt P08515 1-218 = GST); assay: A/G assays
T1 construct: also called NeDLG1

[2] = target: T2, GST-KIAA0316 PDZ domain fusion protein (KIAA0316 AA197-284; PDZ domain 1 of 1) (UniProt P08515 1-218 = GST); assay: A/G assays
T2 construct: also called K316
T2 sequence (P08515 1-218, tags or fused parts left off): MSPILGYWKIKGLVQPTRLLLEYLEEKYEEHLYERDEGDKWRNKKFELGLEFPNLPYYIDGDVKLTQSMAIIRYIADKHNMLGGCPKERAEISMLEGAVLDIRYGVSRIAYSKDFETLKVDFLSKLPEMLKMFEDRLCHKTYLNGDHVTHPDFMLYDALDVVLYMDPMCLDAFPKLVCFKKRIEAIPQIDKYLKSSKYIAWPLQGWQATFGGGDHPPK

[3] = target: GST-DVL1 PDZ domain fusion protein (human dishevelled segment polarity protein homolog AA248-340); PDZ domain … (human, UniProt P08515 1-218 = GST); assay: A/G assays
Chain of GST-DVL1 PDZ domain fusion protein (human dishevelled segment polarity protein homolog AA248-340); PDZ domain … (P08515 1-218, tags or fused parts left off): as above

[4] = target: T3, GST-CBP PDZ domain fusion protein (Cytohesin binding protein HE AA85-175; PDZ domain 1 of 1) (UniProt P08515 1-218 = GST); assay: A/G assays
T3 construct: also called Prot

[5] = target: T4, GST-TAX43 PDZ domain fusion protein (human tax interaction protein 43 AA15-85; PDZ domain 1 of 1) (human, UniProt P08515 1-218 = GST); assay: A/G assays
T4 construct: also called TX 43
T4 sequence (P08515 1-218, tags or fused parts left off): as above

[6] = target: GST-AF6 PDZ domain fusion protein (af-6 protein AA985-1077; PDZ domain 1 of 1) (UniProt P08515 1-218 = GST); assay: A/G assays
Chain of GST-AF6 PDZ domain fusion protein (af-6 protein AA985-1077; PDZ domain 1 of 1) (P08515 1-218, tags or fused parts left off): as above

[7] = target: T5, GST-TAX40 PDZ domain fusion protein (human tax interaction protein 40 AA35-137; PDZ domain 1 of 1) (human, UniProt P08515 1-218 = GST); assay: A/G assays
T5 construct: also called TX 40
T5 sequence (P08515 1-218, tags or fused parts left off): as above

[8] = target: T6, GST-CASK PDZ domain fusion protein (CASK AA495-584; PDZ domain 1 of 1) (mouse, UniProt P08515 1-218 = GST); assay: A/G assays
T6 construct: also called mCASK
T6 sequence (P08515 1-218, tags or fused parts left off): as above

[9] = target: T7, GST-KIAA0559 PDZ domain fusion protein (KIAA0559 AA766-870; PDZ1 of 1) (UniProt P08515 1-218 = GST); assay: A/G assays
T7 construct: also called K559
T7 sequence (P08515 1-218, tags or fused parts left off): as above

[10] = target: GST-prIL16 PDZ domain fusion protein (putative interleukin 16 precursor AA170-383; PDZ domains 1-2 of 2) (UniProt P08515 1-218 = GST); assay: A/G assays
[11] = target: T8, GST-TAX2 PDZ domain fusion protein (human tax interaction protein 2 AA54-140; PDZ domain 1 of 1) (human, UniProt P08515 1-218 = GST); assay: A/G assays
T8 construct: also called TX 2
T8 sequence (P08515 1-218, tags or fused parts left off): as above

[12] = target: T9, GST-KIAA0303 PDZ domain fusion protein (KIAA0303 AA652-742; PDZ domain 1 of 1) (UniProt P08515 1-218 = GST); assay: A/G assays
T9 construct: also called K303
T9 sequence (P08515 1-218, tags or fused parts left off): as above

[13] = target: GST-MPP1 PDZ domain fusion protein (55 Kd erythrocyte membrane protein AA101-186; PDZ domain 1 of 1) (UniProt P08515 1-218 = GST); assay: A/G assays
[14] = target: T10, GST-MPP2 PDZ domain fusion protein (maguk p55 subfamily member 2 (DLG2) AA185-273; PDZ domain 1 of 1) (UniProt P08515 1-218 = GST); assay: A/G assays
T10 construct: also called MMP2
T10 sequence (P08515 1-218, tags or fused parts left off): as above

[15] = target: GST-MINT3 PDZ domain fusion protein (human MINT3 AA11-52; PDZ domain 1 of 1) (human, UniProt P08515 1-218 = GST); assay: A/G assays
Chain of GST-MINT3 PDZ domain fusion protein (human MINT3 AA11-52; PDZ domain 1 of 1) (P08515 1-218, tags or fused parts left off): as above

[16] = target: GST-PTN-4 PDZ domain fusion protein (protein-tyrosine phosphatase meg1 AA774-862; PDZ domain 1 of 1) (UniProt P08515 1-218 = GST); assay: A/G assays
[17] = target: GST-LIM PDZ domain fusion protein (Human LIM protein AA29-112; PDZ domain 1 of 1) (human, UniProt P08515 1-218 = GST); assay: A/G assays
Chain of GST-LIM PDZ domain fusion protein (Human LIM protein AA29-112; PDZ domain 1 of 1) (P08515 1-218, tags or fused parts left off): as above

[18] = target: T11, GST-RGS12 PDZ domain fusion protein (human regulator of G-protein signalling 12 AA35-103; PDZ domain 1 of 1) (human, UniProt P08515 1-218 = GST); assay: A/G assays
T11 construct: also called RSG12
T11 sequence (P08515 1-218, tags or fused parts left off): as above

[19] = target: GST-TIAM1 PDZ domain fusion protein (T-lymphoma invasion and metastasis inducing protein 1 AA1001-1088); PDZ 1 … (UniProt P08515 1-218 = GST); assay: A/G assays
Chain of GST-TIAM1 PDZ domain fusion protein (T-lymphoma invasion and metastasis inducing protein 1 AA1001-1088); PDZ 1 … (P08515 1-218, tags or fused parts left off): as above

[20] = target: T12, GST-SYN1a PDZ domain fusion protein (alpha1-syntrophin AA96-189; PDZ domain 1 of 1) (UniProt P08515 1-218 = GST); assay: A/G assays
T12 construct: also called SYN 1 alpha; SYNTR 1 alpha
T12 sequence (P08515 1-218, tags or fused parts left off): as above

[21] = target: GST-LIMK2 PDZ domain fusion protein (human LIM domain kinase 2 AA185-275; PDZ domain 1 of 1) (human, UniProt P08515 1-218 = GST); assay: A/G assays
Chain of GST-LIMK2 PDZ domain fusion protein (human LIM domain kinase 2 AA185-275; PDZ domain 1 of 1) (P08515 1-218, tags or fused parts left off): as above

[22] = target: T13, GST-TAX33 PDZ domain fusion protein (tax interaction protein 33 AA73-162; PDZ domain 1 of 1) (UniProt P08515 1-218 = GST); assay: A/G assays
T13 construct: also called TX33
T13 sequence (P08515 1-218, tags or fused parts left off): as above

[23] = target: GST-NOS1 PDZ domain fusion protein (human neuronal nitric oxide synthase; PDZ domain 1 of 1) (human, UniProt P08515 1-218 = GST); assay: A/G assays
Chain of GST-NOS1 PDZ domain fusion protein (human neuronal nitric oxide synthase; PDZ domain 1 of 1) (P08515 1-218, tags or fused parts left off): as above

[24] = target: T14, GST-PSD95 PDZ domain fusion protein (human post-synaptic density protein 95 AA387-724; PDZ domains 1-3 of 3) (human, UniProt P08515 1-218 = GST); assay: A assay
T14 sequence (P08515 1-218, tags or fused parts left off): as above

[25] = target: T15, GST-41.8 kD PDZ domain fusion protein (hypothetical 41.8 kD protein AA4-85; PDZ domain 1 of 1) (UniProt P08515 1-218 = GST); assay: A and G assays
T15 construct: also called hypoth
T15 sequence (P08515 1-218, tags or fused parts left off): as above

[26] = target: T15, GST-41.8 kD PDZ domain fusion protein …; assay: A/G assays
[27] = target: T1, GST-NeDLG PDZ domain fusion protein …; assay: G assay
[28] = target: T14, GST-PSD95 PDZ domain fusion protein …; assay: A/G assays
[29] = target: T1, GST-NeDLG PDZ domain fusion protein …; assay: A assay

T1 sequence (P08515 1-218, tags or fused parts left off): as above

| Binder | binding result [2] | binding result [3] | binding result [4] | binding result [5] | binding result [6] | binding result [7] | binding result [8] | binding result [9] | binding result [10] | binding result [11] | binding result [12] | binding result [13] | binding result [14] | binding result [15] | binding result [16] | binding result [17] | binding result [18] | binding result [19] | binding result [20] | binding result [21] | other results |
| --- | --- | --- | --- | --- | --- | --- | --- | --- | --- | --- | --- | --- | --- | --- | --- | --- | --- | --- | --- | --- | --- |
| Biotin-SVFSIPTLWSPWPPSSSSQL (also called CD3-eta) [CD3n C-terminal PL peptide AA4L, biotinylated] | no binding | no binding | no binding | no binding | no binding | no binding | no binding | no binding | no binding | no binding | no binding | no binding | no binding | no binding | no binding | no binding | no binding | no binding | no binding | no binding | binding result [1]: no binding; binding result [22]: no binding; binding result [23]: no binding; binding result [24]: binds; binding result [25]: binds |
| Biotin-ISKATPALPTVSISSSAEV (also called AA1L-R) [CLASP-1 C-terminal PL peptide AA1L, biotinylated] | no binding | no binding | no binding | no binding | no binding | no binding | no binding | no binding | no binding | no binding | no binding | no binding | no binding | no binding | no binding | no binding | no binding | no binding | no binding | no binding | binding result [26]: no binding; binding result [22]: no binding; binding result [23]: no binding; binding result [27]: binds; binding result [24]: binds |
| Biotin-ARHRVTSYTSSSVNVSSNL [CDW128A (IL8RA) C-terminal PL peptide AA29.1L, biotinylated] | no binding | no binding | no binding | no binding | no binding | no binding | no binding | no binding | no binding | no binding | no binding | no binding | no binding | no binding | no binding | no binding | no binding | no binding | no binding | no binding | binding result [28]: no binding; binding result [26]: no binding; binding result [22]: no binding; binding result [23]: no binding; binding result [29]: binds |
| Biotin-QATSRNGHSARQHVVADTEL [CD34 C-terminal PL peptide AA7L, biotinylated] | no binding | no binding | no binding | no binding | no binding | no binding | no binding | no binding | no binding | no binding | no binding | no binding | no binding | no binding | no binding | no binding | no binding | no binding | no binding | no binding | binding result [26]: no binding; binding result [22]: no binding; binding result [23]: no binding; binding result [27]: binds; binding result [24]: binds |
| Biotin-HKAEIHAQPSDKERLTSDA [CD49F (Aform, alpha 6) C-terminal PL peptide AA12L, biotinylated] | no binding | no binding | no binding | no binding | no binding | no binding | no binding | no binding | no binding | no binding | no binding | no binding | no binding | no binding | no binding | no binding | no binding | no binding | no binding | no binding | binding result [1]: no binding; binding result [28]: no binding; binding result [22]: no binding; binding result [23]: no binding; binding result [25]: binds |
